{"source": "patent US7205387B2", "about": "“Recombinant polypeptide useful for neurotrophin receptor mediated gene delivery and as neurotrophin agonist” (Agency for Science, Technology and Research, priority 2003, dated 2007)", "tested_on": "plasmid DNA", "assay": "Atomic force microscopy of polypeptide-DNA complexes", "assay_type": "physicochemical", "protocol": "DNA samples, polypeptide-DNA complexes, and polypeptide-polycation-DNA complexes were prepared with a DNA concentration of 0.02 mg/ml. The samples were diluted ten-fold in HPLC-grade water, and 20 μl of each sample was deposited onto mica discs. After one minute, the mica discs were washed with HPLC-grade water and dried in a stream of filtered air. Images were acquired on a Nanoscope IIIa atomic force microscope (Digital Instruments, Santa Barbara, Calif., USA) operating in tapping mode in air, using Nanoprobe Silicon tips (Digital Instruments).", "data": [{"molecule": "SPKR4NL1-2: chimeric protein: (SPKR)4 DNA-binding domain, α-helical linker, targeting domain with loops 1 and 2 of NGF (aa 17–67), His10 tag (protein, SPKR4NL1-2) MGHHHHHHHHHHSSGHIEGRHMSPKRSPKRSPKRSPKRGGTYLSEDELKAAEAAFKRHNPTGSCSVSVWVGDKTTATDIKGKEVMVLGEVNINNSVFKQYFFETKCRDPNPVDSG", "values": [{"measurement": "DNA condensation seen by atomic force microscopy, with PEI600", "setting": "PEI600 (N/P ratio of 5) added", "result": "compact nanoparticles are formed"}, {"measurement": "DNA condensation seen by atomic force microscopy, peptide alone", "setting": "peptide and plasmid DNA without polycation", "result": "only partially condenses plasmid DNA"}]}]}
